Here are results for two molecules from US20250002574A1 (SUNSHINE LAKE PHARMA, published 2025).

The target of assay [1] is T1, recombinant OSM (Genscript-z03132) (UniProt P13725 26-221, limits assumed).
T1 sequence (looked up): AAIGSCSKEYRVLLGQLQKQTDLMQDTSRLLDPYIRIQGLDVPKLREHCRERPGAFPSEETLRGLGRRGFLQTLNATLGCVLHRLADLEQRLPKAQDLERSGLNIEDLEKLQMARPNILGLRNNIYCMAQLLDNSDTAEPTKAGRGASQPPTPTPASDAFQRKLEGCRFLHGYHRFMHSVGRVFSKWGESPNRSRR
In words: ELISA, cytokine coated. Background: An ELISA detects its analyte on a solid surface through an enzyme-linked reagent.

For assay [2], the target named is T2, recombinant CLC (R&D systems, 962-CL-050) (UniProt Q9UBD9 28-225).
T2 sequence (looked up): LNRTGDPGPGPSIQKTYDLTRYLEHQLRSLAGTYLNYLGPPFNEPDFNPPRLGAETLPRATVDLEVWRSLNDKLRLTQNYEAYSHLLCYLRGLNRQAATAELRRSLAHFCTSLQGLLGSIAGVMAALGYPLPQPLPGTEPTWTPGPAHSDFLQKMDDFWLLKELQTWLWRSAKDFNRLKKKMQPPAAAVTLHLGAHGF
In words: ELISA, cytokine coated.

For assay [3], the target named is T3, recombinant LIF (Peprotech, 300-05) (UniProt P15018 23-202). In words: ELISA, cytokine coated.
Assay [4] concerns the target T4, recombinant IL-31 (Peprotech, 200-31) (UniProt Q6EBC2 24-164).
T4 sequence (looked up): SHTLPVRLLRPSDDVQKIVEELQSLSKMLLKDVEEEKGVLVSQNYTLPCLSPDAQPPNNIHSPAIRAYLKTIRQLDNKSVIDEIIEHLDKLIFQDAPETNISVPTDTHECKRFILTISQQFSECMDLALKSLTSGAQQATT
In words: ELISA, cytokine coated.

The target of assay [5] is T5, recombinant CNTF (R&D systems, 257-NT-010) (UniProt P26441 2-200).
T5 sequence (looked up): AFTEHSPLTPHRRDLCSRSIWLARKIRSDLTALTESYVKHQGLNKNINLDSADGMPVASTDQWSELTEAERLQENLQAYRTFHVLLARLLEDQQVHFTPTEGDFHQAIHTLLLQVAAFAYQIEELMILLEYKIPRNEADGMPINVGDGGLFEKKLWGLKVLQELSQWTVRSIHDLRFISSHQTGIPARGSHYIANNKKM
In words: ELISA, cytokine coated.

In assay [6] the target is T6, recombinant CT-1 (R&D systems, 612-CD-010) (UniProt Q16619 2-201).
T6 sequence (looked up): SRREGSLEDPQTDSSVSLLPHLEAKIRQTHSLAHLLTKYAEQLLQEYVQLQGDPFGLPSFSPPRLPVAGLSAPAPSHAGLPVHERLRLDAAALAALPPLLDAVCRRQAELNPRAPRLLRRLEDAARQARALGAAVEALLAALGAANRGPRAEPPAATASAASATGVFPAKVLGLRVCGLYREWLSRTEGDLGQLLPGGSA
In words: ELISA, cytokine coated.

For assay [7], the target named is T7, recombinant IL-6 (Sinobiological-10395-HNAE) (UniProt P05231 30-212). The experiment in a line: ELISA, cytokine coated.
The target in assay [8] is T8, recombinant IL-27 (R&D systems, 2526-IL-010) (UniProt Q8NEV9 29-243; Q14213 21-229).
T8 construct: the bought product may be a single-chain fusion
T8 sequence (looked up) 1: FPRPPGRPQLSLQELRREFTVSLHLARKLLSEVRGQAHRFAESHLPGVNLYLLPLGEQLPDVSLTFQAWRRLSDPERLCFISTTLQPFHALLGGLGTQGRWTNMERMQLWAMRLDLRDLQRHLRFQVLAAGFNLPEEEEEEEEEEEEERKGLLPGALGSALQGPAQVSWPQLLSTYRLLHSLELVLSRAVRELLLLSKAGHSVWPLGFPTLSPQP
T8 sequence (looked up) 2: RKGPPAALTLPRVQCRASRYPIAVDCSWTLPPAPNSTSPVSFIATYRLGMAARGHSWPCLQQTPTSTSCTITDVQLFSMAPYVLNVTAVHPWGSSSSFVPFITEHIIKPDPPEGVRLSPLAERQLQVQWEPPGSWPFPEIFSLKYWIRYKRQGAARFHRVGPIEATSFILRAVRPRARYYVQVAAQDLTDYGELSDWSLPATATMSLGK
In words: ELISA, cytokine coated.

The target of assay [9] is T1, recombinant OSM (Genscript-z03132). In words: ELISA, cytokine coated. This is another data set of the same source.
In assay [10] the target is T2, recombinant CLC (R&D systems, …). The experiment in a line: ELISA, cytokine coated. The source holds these as a separate data set.
The target of assay [11] is T3, recombinant LIF (Peprotech, 300-05). The experiment in a line: ELISA, cytokine coated. The source holds these as a separate data set.
Assay [12] deals with T4, recombinant IL-31 (Peprotech, 200-31). The experiment in a line: ELISA, cytokine coated. This is another data set of the same source.
In assay [13] the target is T5, recombinant CNTF (R&D systems, …). The experiment in a line: ELISA, cytokine coated. The source holds these as a separate data set.
Assay [14] concerns the target T6, recombinant CT-1 (R&D systems, …). In words: ELISA, cytokine coated. This is another data set of the same source.
In assay [15] the target is T9, recombinant IL-11 (LSBio, LS-G132887-10) (UniProt P20809 22-199).
T9 sequence (looked up): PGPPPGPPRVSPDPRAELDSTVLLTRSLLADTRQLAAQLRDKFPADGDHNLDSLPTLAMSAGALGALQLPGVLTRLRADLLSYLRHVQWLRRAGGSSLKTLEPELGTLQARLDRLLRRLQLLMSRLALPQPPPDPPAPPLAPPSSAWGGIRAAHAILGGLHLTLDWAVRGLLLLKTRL
In words: ELISA, cytokine coated.

The target of assay [16] is T7, recombinant IL-6 …. In words: ELISA, cytokine coated. The source holds these as a separate data set.
Assay [17] has as its target T8, recombinant IL-27 (R&D systems, …). The experiment in a line: ELISA, cytokine coated. The source holds these as a separate data set.
Assay [18] concerns the target T10, recombinant human protein antigen hu-IL-11-His tag (human, UniProt P20809 22-199).
T10 construct: also called IL-11-His protein; not shown: His tag
T10 sequence (looked up): T9 sequence (looked up)
In words: BLI (Octet QKe), IL-11 (His tag) on Ni-NTA sensor, antibody as analyte. On the procedure:
The analytes were diluted in 7 concentration gradients, the binding time was 60 s and the dissociation time was 1000 s. The buffer was 20 mM PBS, 0.15M NaCl, 0.1% BSA, 0.05% Tween 20, pH 7.4. […] In this example, Pall ForteBio (Octet QKe) instrument was used to determine the affinity of antibodies for antigens.

In another assay the target is T11, IL-11-Fc protein (UniProt P20809 22-199, limits assumed).
T11 construct: also called IL-11 recombinant protein with Fc tag; not shown: Fc tag
T11 sequence (looked up): T9 sequence (looked up)
The experiment in a line: flow cytometry competition: IL-11-Fc plus antibody on membrane-IL-11R CHO cells. The source says: The secondary antibody (Goat-anti-Fc-FITC) (Abcam, ab98529) conjugated with FITC fluorophore was used for detection.
(In general: A flow cytometer gives signals particle by particle.)

T3 sequence (P15018 23-202 limits assumed): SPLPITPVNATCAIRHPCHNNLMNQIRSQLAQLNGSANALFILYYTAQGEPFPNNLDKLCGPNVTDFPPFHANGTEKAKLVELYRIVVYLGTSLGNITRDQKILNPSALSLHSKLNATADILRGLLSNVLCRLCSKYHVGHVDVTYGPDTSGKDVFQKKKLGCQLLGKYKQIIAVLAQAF

B1: 3-6A4 (recombinant, expressed in CHO, Example 6) (antibody, human IgG1, kappa, V domains shown)
VH: QIQLVQSGPELKKPGETVKISCKASGYTFTTNGINWVKQAAGKGLKWMGWINTNTGEPTNAEELKGRFAFSLETSASTAYLQINNLKNEDAAIYFCAREGAFGLDYWGQGTSVTVSS
VL: SIVMTQSPKFLLVSAGDRVIITCKASQSVSNDVVWYQQKPGQSPKLLIYYGSHRNTGVPTRFTGSGYGTDFTFTISTVQAEDLAVYFCQQDFFSPWTFGGGTKLEIKR
On to B1, for which the binding result in assay [1], in assay [2], in assay [3], in assay [4], in assay [5] and in assay [6] was “no binding” in each case. The binding result in assay [7] and in assay [8] was “no binding” in each case. Also, the OD450 nm in assay [9] was 0.102 OD450; in [10], 0.042 OD450; in assay [11] it was 0.084 OD450; in assay [12], 0.088 OD450; in assay [13], 0.064 OD450; in assay [14], 0.041 OD450. For the same molecule, the results for the OD450 nm in assay [15], in assay [16] and in assay [17] were 1.88 OD450, 0.039 OD450 and 0.035 OD450, respectively. For the same molecule, the Kd in assay [18] came out at 0.0393 nM. For the same molecule, the koff in assay [18] worked out at 4.16e-05 s⁻¹. Also, the kon in assay [18] worked out at 1.06e+06 M⁻¹ s⁻¹. The IC50 with IL-11-Fc protein is roughly 7 µg/mL.

B2: 5-20E11-5F2 (recombinant, expressed in CHO, Example 6) (antibody, human IgG1, kappa, V domains shown)
VH: QVQLQQSGAELVRPGTSAKISCKASDYTFTNYWLGWLKQRPGHGLEWIGHIYPGGGYTNYNEKFKGKATLTADTSSSTAYMQLSSLTSEDSAVYFCARVRSGNDALDFWGQGTSVTVSS
VL: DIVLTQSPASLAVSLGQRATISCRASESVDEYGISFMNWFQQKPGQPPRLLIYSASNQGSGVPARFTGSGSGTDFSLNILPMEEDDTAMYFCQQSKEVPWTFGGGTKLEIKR
Take B2: the binding result in [1], in assay [2], in [3], in [4], in assay [5] and in [6] was “no binding” each time. For the same molecule, the binding result in [7] and in [8] was “no binding” in each case. For the same molecule, the OD450 nm in [9] was determined as 0.045 OD450; in [10], 0.033 OD450; in assay [11], 0.037 OD450; in assay [12], 0.036 OD450; in [13], 0.036 OD450; in assay [14], 0.034 OD450. For the same molecule, the OD450 nm was determined as 1.93 OD450 in assay [15], 0.049 OD450 in assay [16] and 0.048 OD450 in assay [17]. The equilibrium dissociation constant (Kd) in assay [18] was found to be 0.069 nM. In [18], the koff is 1.21e-05 s⁻¹. In addition, in [18], the kon was determined as 175000 M⁻¹ s⁻¹. Besides, the IC50 with IL-11-Fc protein was roughly 21 µg/mL.

A word on the Kd: it is the equilibrium constant for the complex coming apart. What is called koff is the first-order rate constant of dissociation. For orientation: kon means the second-order rate constant of association. One may read the IC50 as the midpoint of a concentration-inhibition curve.
